Assays:
RIN-m cells = test: MTT viability assay, peptide alone or mixed with hIAPP; format: cell-based; conditions: for rescue / protection of cells from hIAPP toxicity (words): hIAPP mixed with peptide 1:1, MTT assay; for toxicity of peptide to cells: peptide alone, MTT assay, pancreatic (RIN-m) cells
Source text: Cytoprotection can likewise be measured by a number of assays known to the art. One such assay is the MTT assay, which is a colorimetric assay for assessing cell metabolic activity. NAD(P)H-dependent cellular oxidoreductase enzymes in the cytosolic compartment of a cell reduces the tetrazolium dye MTT 3-(4,5-dimethylthiazol-2-yl)-2,5-diphenyltetrazolium bromide to an insoluble form, formazan, which has a purple color. The reduction of MTT (and other tetrazolium dyes) depends on the cellular metabolic activity, so a loss of color in the course of performing an MTT assay indicates low metabolic activity, and is thus an indicator of cell damage and death.
To test cell viability, a MTT colorimetric assay measuring the conversion of yellow tetrazolium salt into purple formazan crystal catalyzed by a mitochondrial reductase was used. Cell viability studies were performed using RIN-m cells (ATCC, CRL-2057). An equal number of RIN-m cells were plated in triplicate and incubated overnight in 96-well plates. The next day, fresh RPMI-1640 with phenol red supplemented with 10% FBS was added to cells. Hexafluoroisopropanol (HFIP) was removed from each individual human and animal IAPP using a centrivap concentrator (LabOnco). All IAPP peptide samples were re-suspended in RPMI-1640 with 10% FBS. To ensure even re-suspension, each resulting IAPP-containing vial was scraped with a pipette tip six times and vortexed (Vortex Genie Mixer) for 15 seconds. The whole process, from drying each IAPP peptide to adding each IAPP peptide to the cells was uniform to ensure that each sample was incubated for an equal amount of time with each IAPP peptide. IAPP peptides were added to cells and incubated for 46 hours at 37° C. Post-incubation, the media in each well was replaced by fresh DMEM/F-12 without phenol red. MTT (3-(4,5-dimethyl-2-thiazolyl)-2,5-diphenyl-tetrazolium bromide) was added into each well and incubated at 37° C. for 2 hours. Formazan crystals, formed on the bottom of the wells, were re-suspended in solubilization buffer (20% SDS and 50% dimethylformamide). The absorbance in each well was taken at 570 nm using a Multiskan FC Microplate Photometer (Thermos Fisher Scientific). Media were obtained from ATCC. All incubations took place in a water jacketed incubator in 5% carbon dioxide at 37° C. (Shell Lab).
The MTT viability assay was used to measure cell viability of RIN-m cells upon addition of hIAPP alone, the addition of each animal IAPP peptide alone, and hIAPP mixed with each animal IAPP peptide (results shown in FIG. 5). RIN-m cells alone were used as a control and set to 100% cell viability. […] Addition of raccoon IAPP to hIAPP increased the cell viability from 55% to an average of 72% (p=0.005705). Addition of chicken IAPP variant to hIAPP increased cell viability to an average of 76% (p=0.013556).

[1] = AFM of peptide alone (self-aggregation / fibril formation); format: physicochemical; conditions: peptide alone, incubated 40 minutes at 37° C. with shaking
Protocol: (§1) Samples labeled with hIAPP contained 40 μM hIAPP. The sample with pramlintide and hIAPP contained a 2:1 molar mixture (80 μM Pramlintide mixed with 40 μM hIAPP). The samples with raccoon IAPP and Pramlintide alone contained 40 μM of the indicated peptides. Each sample was incubated for 40 minutes at 37° C. with shaking; conditions known to promote hIAPP amyloid formation. All scans show raw data with no flattening and are […].
(§2) Samples of hIAPP with or without animal IAPP were prepared as described in Example 1 and were then incubated with shaking at 37° C. for 40 minutes. After this incubation, 17 μL of each sample was deposited onto freshly cleaved mica. Samples were incubated for 5 minutes at room temperature before washing with 200 μL sterile water. After drying, the samples were scanned using an MFP-3D atomic force microscope (Asylum Research) set on A/C mode and a 240 m silicon cantilever (Olympus).
(§3) Many of the animal IAPP variants are known to likewise form fibrils and yield amyloid-plaques when scanned via AFM. […] This is in spite of the fact that all of these IAPP peptides (except polar bear IAPP) are known to aggregate and form fibrils themselves under these or similar conditions

human IAPP (hIAPP) [2] = molecular target: T1, human IAPP (hIAPP) (Homo sapiens, UniProt P10997); test: Atomic force microscopy (AFM) of hIAPP fibril formation when mixed with IAPP peptides; format: biochemical; conditions: for inhibition of hIAPP fibril formation, AFM: 37 μM hIAPP and 75 μM peptide, 37° C. with shaking for 40 minutes; for inhibition of hIAPP fiber formation: FIG. 22: 37 μM hIAPP mixed with 37 μM peptide, 37° C. with shaking for 30 minutes
T1 construct: This 37 amino acid polypeptide is co-secreted from pancreatic β-islet cells with insulin
T1 sequence (P10997 34-70 limits assumed): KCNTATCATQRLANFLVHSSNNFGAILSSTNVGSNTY
Protocol: as §1
Each sample contained 37 μM hIAPP and 75 μM of the indicated peptide. Samples were incubated at 37° C. with shaking for 40 minutes. All scans show raw data with no flattening and are […].
Each sample contained 37 μM hIAPP mixed with 37 μM of the indicated peptide. Samples were incubated at 37° C. with shaking for 30 minutes before depositing each sample onto freshly cleaved mica.
as §2, §3

human IAPP (hIAPP) [3] = molecular target: T1, human IAPP (hIAPP); test: Thioflavin T binding assay of hIAPP aggregation when mixed with IAPP peptides; format: biochemical; conditions: for inhibition of hIAPP aggregation (summary statement): peptide mixed with hIAPP, no single assay (thioflavin T and AFM); for inhibition of hIAPP aggregation, thioflavin T binding: hIAPP mixed with peptide, incubated at 37° C. with shaking
Source text: Any of a number of assays known to the art can be used to evaluate the ability of IAPP peptides to inhibit hIAPP aggregation and/or protect cells from hIAPP toxicity. Thioflavin T (ThT) binding is one such technique for identifying amyloid formation in real time. Human IAPP is known to bind thioflavin T during aggregation and amyloid formation, and upon binding to amyloid fibrils ThT will give a strong fluorescence signal at approximately 482 nm when excited at 450 nm. ThT fluorescence correlates linearly with amyloid concentration in a sample and therefore can be used to determine the amount of aggregation in a sample. This technique can therefore be used for identifying substances with amyloid-inhibiting potential when such substances are mixed with human IAPP under conditions known to result in the formation of aggregates by hIAPP. Determining the extent of aggregation can also be determined using other techniques, such as Atomic Force Microscopy (AFM), which can provide information about particle dimensions, shape, and substructure with nanometer resolution. In the foregoing assays and others that can be used by one of skill in the art, significant inhibition can be determined using a t-test by measuring the difference between hIAPP and hIAPP combined with an IAPP peptide.
To identify IAPP peptides having inhibitory potential against hIAPP aggregation, the peptides shown in FIG. 1 from a number of species (cow, degu, guinea pig, horse, pig, rat, and sheep[…]) were mixed with hIAPP at a 2:1 molar ratio of animal peptide to hIAPP and incubated under conditions known to promote hIAPP aggregation and fibril formation. IAPP alone, or hIAPP mixed with an animal IAPP, was pipetted into a glass tube and the HFIP was removed under speed-vacuum. The resulting peptide sample was dissolved in 20 mM Tris buffer pH 7.4.
37 μM human IAPP was mixed with 75 μM of each indicated animal IAPP. Aggregation was initiated by incubating samples at 37° C. with shaking at 200 rpm for 40 minutes. At indicated time points, a 17 μL aliquot of each sample was mixed with 663 μL of 50.0 μM thioflavin T in 20 mM Tris buffer (pH 7.4). Thioflavin T fluorescence emission was then recorded at 488 nm using a Hitachi F-7000 fluorescence spectrophotometer.
After 40 minutes, these samples were monitored for their ability to bind thioflavin T (see FIG. 2) and their ability to form fibrils as identified with atomic force microscopy.
Human IAPP (37 μM) was mixed with each of the indicated Weddell seal variants (at 75 μM) and incubated for 30 minutes at 37° C. with shaking at 200 rpm. The Weddell seal IAPP peptides were likewise subjected to atomic force microscopy as described in Example 2.
Human IAPP was mixed with each of the indicated raccoon variants and incubated at 37° C. with shaking.
Human IAPP was mixed with each of the indicated chicken variants and incubated at 37° C. with shaking. […] However, it was able to protect cells in MTT assays, so it is believed to inhibit formation of toxic oligomers while having a lesser effect on inhibiting the formation of fibers (which are less toxic and less able to bind ThT).
Human IAPP was mixed with each of the indicated chicken variants and incubated at 37° C. with shaking.

Compound	cell viability, peptide alone (RIN-m cells; 12.8 μM, RIN-m cells, 46 hours, cells alone set to 100%)	aggregation / fibril formation of peptide alone, AFM [1]	rescue / protection of cells from hIAPP toxicity (words) (RIN-m cells)	inhibition of hIAPP fibril formation, AFM (human IAPP (hIAPP) [2])	inhibition of hIAPP aggregation (summary statement) (human IAPP (hIAPP) [3])	toxicity of peptide to cells (RIN-m cells)	rescue / protection of cells from hIAPP toxicity (words) (RIN-m cells; listed as Rac-L26Y)	inhibition of hIAPP fiber formation (human IAPP (hIAPP) [2])	inhibition of hIAPP aggregation, thioflavin T binding (human IAPP (hIAPP) [3])	rescue / protection of cells from hIAPP toxicity (words) (RIN-m cells; listed as Ch-122L)
CC[C@H](C)[C@H](NC(=O)[C@H](C)NC(=O)CNC(=O)[C@H](Cc1ccccc1)NC(=O)[C@H](CC(N)=O)NC(=O)[C@H](CC(N)=O)NC(=O)[C@H](CO)NC(=O)[C@H](CO)NC(=O)[C@H](Cc1c[nH]cn1)NC(=O)[C@@H](NC(=O)[C@H](CC(C)C)NC(=O)[C@H](Cc1ccccc1)NC(=O)[C@H](CC(N)=O)NC(=O)[C@H](C)NC(=O)[C@H](CC(C)C)NC(=O)[C@H](CCCNC(=N)N)NC(=O)[C@H](CCC(N)=O)NC(=O)[C@@H](NC(=O)[C@H](C)NC(=O)[C@@H]1CSSC[C@H](NC(=O)[C@@H](N)CCCCN)C(=O)N[C@@H](CC(N)=O)C(=O)N[C@@H]([C@@H](C)O)C(=O)N[C@@H](C)C(=O)N[C@@H]([C@@H](C)O)C(=O)N1)[C@@H](C)O)C(C)C)C(=O)N[C@@H](CC(C)C)C(=O)N[C@@H](CO)C(=O)N[C@@H](CO)C(=O)N[C@H](C(=O)N[C@@H](CC(N)=O)C(=O)N[C@H](C(=O)NCC(=O)N[C@@H](CO)C(=O)N[C@@H](CC(N)=O)C(=O)N[C@H](C(=O)N[C@@H](Cc1ccc(O)cc1)C(N)=O)[C@@H](C)O)C(C)C)[C@@H](C)O [hIAPP, reference compound]	55+/−5%	forms high-density fibrils	–	–	–	–	–	–	–	–
KCNTATCATQRLANFLVRSGNLFGAILSPTNVGSNTY (listed as Ursus maritimus) [polar bear IAPP]	–	–	not capable of protecting RIN-m cells from the toxic effects of hIAPP	significant ability to prevent fiber formation	able to inhibit such aggregation	–	–	–	–	–
rat IAPP: naturally occurring IAPP peptide of rat origin (FIG. 1)	–	–	not capable of protecting RIN-m cells from the toxic effects of hIAPP	either had no effect on hIAPP fibril formation or appeared to promote fibrils with hIAPP	failed to inhibit the aggregation of human IAPP	improved effect on cell viability	–	–	–	–
KCNTATCVTQRLANFLLRSSNNLGAIYSPTNVGSNTY (Procyon lotor mutation) [Rac_L26Y]	–	–	improved cell viability in the presence of hIAPP	–	–	minimal inherent toxicity	rescue cells from hIAPP toxicity	stood out for its ability to inhibit hIAPP fiber formation	inhibited hIAPP aggregation	–
KCNTATCVTQRLANFLLRSSNNLGAIL (Procyon lotor truncation) [R1-27]	–	–	rescued cells from hIAPP-induced cytotoxicity	did	–	–	–	–	inhibited hIAPP aggregation	–
KCNTATCVTQRLADFLVRSSSNLGAIYSPTNVGSNTY (Gallus gallus mutation) [Ch_I22L]	–	–	rescued cells from hIAPP-induced cytotoxicity	–	–	minimal inherent toxicity	–	able to inhibit hIAPP fiber formation	inhibited hIAPP aggregation	rescue cells from hIAPP toxicity

— patent US12522635B2, “Amyloid peptide variants” (Loyola Marymount University, priority 2019, dated 2026)
